Reference: US20240117043A1 (SHANGHAI JUNSHI BIOSCIENCES, published 2024)

Key:
human CD112R-mFc protein = target: T1, human CD112R-mFc protein (human, UniProt Q6DKI7 41-171, limits assumed); assay: flow cytometry, blocking of 1 ug/mL CD112R-mFc binding to CHO hCD112 cells
T1 construct: also called human CD112R protein; not shown: mouse Fc (mFc)
T1 sequence (looked up): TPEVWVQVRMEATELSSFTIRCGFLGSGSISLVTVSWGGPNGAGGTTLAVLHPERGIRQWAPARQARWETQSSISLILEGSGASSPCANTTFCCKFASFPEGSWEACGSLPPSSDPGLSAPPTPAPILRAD
Experimental: CHO hCD112 cells (Chinese hamster ovary cells, human CD112 positive) were incubated with different concentrations of the bispecific antibodies JS-1, JS-3, JS-5 and JS-9 and 1 μg/mL human CD112R-mFc protein at 4° C. for 30 min, then washed twice and incubated with a fluorescence-labeled anti-mouse IgG secondary antibody (1:200) in a dark place at 4° C. for 30 min. Finally, the cells were collected using a flow cytometer (BD Canto II), and the fluorescent antibodies bound to the cell surface were detected. Raw data were analyzed using FlowJo to obtain MFI values, antibody dose-dependent binding curves (FIG. 4) were fitted using GraphPad, and IC50 was calculated. The positive controls were hu52 (a recombinant humanized anti-CD112R monoclonal antibody) and JS-Ref (Hengrui) (an anti-TIGIT/CD112R bispecific antibody of Hengrui, expressed and purified according to the sequence of the patent WO2021180205), and the negative control was an anti-KLH-hIgG1 antibody.

[1] = target: T2, recombinant human HX1 hCD112R Fc (human, UniProt Q6DKI7 41-171, limits assumed); assay: ELISA, plate coated with recombinant human HX1 hCD112R Fc, detection with HRP anti-human IgG4 Fc; unit taken from the concentration axis [3a]
T2 construct: Coated antigen of the ELISA (Suzhou Junmeng); also called human CD112R; not shown: Fc part
T2 sequence (looked up): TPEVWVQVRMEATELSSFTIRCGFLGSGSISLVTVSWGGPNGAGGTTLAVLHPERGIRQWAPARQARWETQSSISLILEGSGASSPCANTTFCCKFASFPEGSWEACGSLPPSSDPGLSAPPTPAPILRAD
Experimental: (§1) 2. Procedures [0255] a. A 96-well plate was coated with 1.0 μg/mL recombinant human HX1 hCD112R Fc (Suzhou Junmeng) as the antigen at 100 μL/well and incubated at 37° C. for 1.5 h. [0256] b. The plate was washed 4 times with 300 μL/well 1×PBST, and 2% BSA was added at 200 μL/well. The plate was blocked at 37° C. for 1.5 h. [0257] c. The plate was washed 4 times with 300 μL/well 1×PBST, and serial dilutions of the bispecific antibodies JS-1,3,5,9 and a negative control: antibody (anti-KLH hIgG4) (initial concentration 3.0 μg/mL, 3-fold serially diluted to 12 concentration points, 100 μL/well) were added. The plate was incubated at 37° C. for 1 h. [0258] d. The plate was washed 4 times with 300 μL/well 1×PBST. [0259] e. 5000-fold diluted horseradish peroxidase (HRP)-conjugated mouse anti-human IgG4 Fc antibody (Southern Biotech, 9200-05) was added at 100 μL/well, and the plate was incubated at 37° C. for 1 h. [0260] f. The plate was washed 4 times with 300 μL/well 1×PBST. [0261] g. 0.1 mg/mL TMB was added at 100 μL/well, and after the plate was incubated at 37° C. for 15 min, a 2 M solution of hydrochloric acid was added at 100 μL/well to stop the reactions. […] The absorbance was measured at 450 nm/620 nm on a microplate reader, and data were analyzed using Graphpad Prism7.

[2] = target: T2, recombinant human HX1 hCD112R Fc; assay: ELISA, plate coated with recombinant human HX1 hCD112R Fc, detection with HRP anti-human IgG4 Fc; unit taken from the concentration axis [3b]
Experimental: as §1

[3] = target: T3, human TIGIT on the surface of Jurkat-hTIGIT cells (human, UniProt Q495A1 22-244); assay: flow cytometry, blocking of 1 ug/mL PVR-mFc binding to Jurkat-hTIGIT cells
T3 construct: whole, on cells; also called human TIGIT on the surface of Jurkat cells
T3 sequence (looked up): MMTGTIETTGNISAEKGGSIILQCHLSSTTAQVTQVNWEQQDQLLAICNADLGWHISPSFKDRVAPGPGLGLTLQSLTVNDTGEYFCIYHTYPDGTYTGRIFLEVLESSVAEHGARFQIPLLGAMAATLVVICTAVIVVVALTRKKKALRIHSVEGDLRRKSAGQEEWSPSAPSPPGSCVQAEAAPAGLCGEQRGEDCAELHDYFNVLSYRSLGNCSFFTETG
Experimental: Jurkat-hTIGIT cells (human T lymphocytes, human TIGIT positive) were incubated with different concentrations of the bispecific antibodies JS-1, JS-3, JS-5 and JS-9 and 1 μg/mL human PVR-mFc protein at 4° C. for 30 min, then washed and incubated with a fluorescence-labeled anti-mouse IgG secondary antibody (1:200) in a dark place at 4° C. for 30 min. Finally, the cells were collected using a flow cytometer (BD Canto II), and the fluorescent antibodies bound to the cell surface were detected. Raw data were analyzed using FlowJo to obtain MFI values, antibody dose-dependent binding curves (FIG. 4) were fitted using GraphPad, and IC50 was calculated. The positive controls were hu20 (a recombinant humanized anti-TIGIT monoclonal antibody) and JS-Ref (Hengrui) (an anti-TIGIT/CD112R bispecific antibody of Hengrui, expressed and purified according to the sequence of the patent WO2021180205), and the negative control was an anti-KLH-hIgG4 antibody.

[4] = target: T4, recombinant human TIGIT (His Tag) (human, UniProt Q495A1 22-141); assay: ELISA, plate coated with recombinant human TIGIT (His Tag), detection with HRP anti-human IgG4 Fc; unit taken from the concentration axis [2a]
T4 construct: Coated antigen of the ELISA; not shown: His tag
T4 sequence (looked up): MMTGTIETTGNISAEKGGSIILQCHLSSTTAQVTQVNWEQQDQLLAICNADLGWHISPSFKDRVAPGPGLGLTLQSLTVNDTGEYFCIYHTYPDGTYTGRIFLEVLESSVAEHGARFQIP
Experimental: (§2) 2. Procedures [0241] a. A 96-well plate was coated with 1.5 μg/mL recombinant human TIGIT (His Tag) (Suzhou Junmeng) as the antigen at 100 μL/well and incubated at 37° C. for 1.5 h. [0242] b. The plate was washed 4 times with 300 μL/well 1×PBST, and 2% BSA was added at 200 μL/well. The plate was blocked at 37° C. for 1.5 h. [0243] c. The plate was washed 4 times with 300 μL/well 1×PBST, and serial dilutions of the bispecific antibodies JS-1,3,5,9 and a negative control: antibody (anti-KLH hIgG4) (initial concentration 1.0 μg/mL, 3-fold serially diluted to 12 concentration points, 100 μL/well) were added. The plate was incubated at 37° C. for 1 h. [0244] d. The plate was washed 4 times with 300 μL/well 1×PBST. [0245] e. 5000-fold diluted horseradish peroxidase (HRP)-conjugated mouse anti-human IgG4 Fc antibody (Southern Biotech, 9200-05) was added at 100 μL/well, and the plate was incubated at 37° C. for 1 h. […] The plate was washed 4 times with 300 μL/well 1×PBST. [0247] g. 0.1 mg/mL TMB was added at 100 μL/well, and after the plate was incubated at 37° C. for 15 min, a 2 M solution of hydrochloric acid was added at 100 μL/well to stop the reactions. [0248] h. The absorbance was measured at 450 nm/620 nm on a microplate reader, and data were analyzed using Graphpad Prism7.

[5] = target: T4, recombinant human TIGIT (His Tag); assay: ELISA, plate coated with recombinant human TIGIT (His Tag), detection with HRP anti-human IgG4 Fc; unit taken from the concentration axis [2b]
Experimental: as §2

B1: hu52 (a recombinant humanized anti-CD112R monoclonal antibody) (antibody, human IgG4 S228P, kappa, V domains shown)
VH: EVQLVESGGGLVKPGGSLRLSCAASGFTFSSYHMSWVRQAPGKGLELVSAINSNGINTYYLDTVKGRFTISRDNAKNSLYLQMNSLRAEDTAVYYCARHEDYYGFAMDYWGQGTLVTVSS
VL: DIVMTQSPDSLAVSLGERATINCKASQSVSNDVAWYQQKPGQPPKLLIYYVSHRFTGVPDRFSGSGSGTDFTLTISSLQAEDVAVYFCHQAYRSPWTFGQGTKLEIKR
notes: also called hu52 mAb; anti-CD112R antibody
For B1, the IC50 (human CD112R-mFc protein) was 0.601 nM, the EC50 [1] was 2.46 ng/mL and the EC50 [2] was 2.62 ng/mL.

B2: hu20 (a recombinant humanized anti-TIGIT monoclonal antibody) (antibody, V domains shown)
VH: QVQLVQSGAEVKKPGASVKVSCKTSGYAFTEYTMHWVRQAPGKGLEWMGGINPNTGGTTYNQKFQGRVTLTVDKSSSTAYMELSSLRSEDTVVYYCAKLLRLMYYFDYWGQGTLVTVSS
VL: DIQMTQSPSSLSASVGDRVTITCQASQDVRTAVAWYQQKPGKAPKLLIYSASYRYTGVPSRFSGSGSGTDFTFTISSLQPEDIATYYCHQHYITPWTFGGGTKVEIKR
notes: vector hu20-2O18HC-3; also called hu20 mAb; anti-TIGIT antibody; not shown: heavy chain constant region
B2 was tested, and the IC50 [3] was 1.98 nM, the EC50 [4] was 20.9 ng/mL and the EC50 [5] was 6.63 ng/mL.
